Test results reported in the supplement of paper PMC10126150.
± gives the standard deviation of the averaged measurements.

Tested on: ATP
Experiment: switch fluorescence ratio, 500 uM ATP over buffer (Cy3 cluster intensity, sum of 5 cycles each) (fold (ratio)); higher = stronger signal-on switching upon ATP binding; sequences stand for … in TCGTCGGCAGCGTCAGATGTGTATAAGAGACAGTTTTTTTTTTTTTTTTTTTTTTTTT…TC
Conditions: aptamer strand: ATP DNA aptamer (quencher-CACCTGGGGGAGTATTGCGGAGGAAGG + anchor), 100 nM annealed; ATP concentration: 500 uM
How it was run: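 The quencher-labelled ATP aptamer, at 100 nM, was annealed to Cy3-labelled switching-strand clusters on a modified Illumina MiSeq flow-cell. The clusters were imaged in selection buffer, then after 15 min with 500 uM ATP at 22 °C, and this buffer/ATP cycle ran five times with NaOH stripping and re-annealing between runs. Per-cluster fluorescence ratios, summed target-cycle over summed buffer-cycle Cy3 intensity, were averaged per switch-domain sequence. Clusters outside 100-1000 RFU were excluded.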
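Further: ATP exposure 15 min at 22 °C before imaging.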

Sequence | switch fluorescence ratio
ATTGAGTGTT | 0.987 ± 0.034
ATTGATGACT | 1.04 ± 0.027
ATTGATGAGG | 0.972 ± 0.012
ATTGATGGGG | 0.976 ± 0.042
ATTGATTGTA | 0.995 ± 0.035
ATTGCATAGG | 0.9951 ± 0.0021
ATTGCCGGAG | 0.999 ± 0.037
ATTGCGAGGC | 1.04 ± 0.029
ATTGCGGCTA | 1.03 ± 0.033
ATTGCGTGTA | 1.023 ± 0.0085
ATTGCGTTGG | 0.996 ± 0.013
ATTGCGTTTG | 1.01 ± 0.026
ATTGCTAGGG | 1.03 ± 0.023
ATTGCTGCGA | 1.006 ± 0.0075
ATTGCTTACG | 1.14 ± 0.19
ATTGGAATTA | 0.985 ± 0.047
ATTGGAGGCA | 1.03 ± 0.03
ATTGGAGTAG | 1.01 ± 0.014
ATTGGATATT | 1.02 ± 0.015
ATTGGCGCGG | 0.969 ± 0.012
ATTGGCGTTT | 0.996 ± 0.049
ATTGGGAAGA | 1.02 ± 0.028
ATTGGGAATC | 0.9923 ± 0.0027
ATTGGGAGGA | 1 ± 0.014
ATTGGGAGGG | 1.022 ± 0.0026

Sequence | switch fluorescence ratio
ATTGGGGAGG | 0.974 ± 0.012
ATTGGGGATG | 0.9819 ± 0.0097
ATTGGGGGAG | 0.987 ± 0.033
ATTGGGGGGC | 1.01 ± 0.036
ATTGGGGTAT | 1 ± 0.03
ATTGGGTTGT | 0.973 ± 0.015
ATTGGGTTTT | 0.999 ± 0.022
ATTGGTAAGG | 0.995 ± 0.025
ATTGGTATAT | 1.007 ± 0.0068
ATTGGTATCT | 0.979 ± 0.014
ATTGGTCATA | 1 ± 0.028
ATTGGTGGTT | 1 ± 0.074
ATTGGTTACG | 1.01 ± 0.028
ATTGGTTTGG | 1.032 ± 0.01
ATTGTAGGGT | 0.972 ± 0.021
ATTGTATTG | 0.986 ± 0.014
ATTGTATTGT | 0.987 ± 0.03
ATTGTCGG | 0.972 ± 0.028
ATTGTGCGGG | 1.01 ± 0.036
ATTGTGCTGG | 0.983 ± 0.018
ATTGTGGAGA | 1.03 ± 0.032
ATTGTGGGAC | 0.996 ± 0.077
ATTGTGGGCG | 0.952 ± 0.017
ATTGTGGGCT | 0.967 ± 0.063
ATTGTTACTG | 1.06 ± 0.021

Sequence | switch fluorescence ratio
ATTGTTACTT | 1.02 ± 0.019
ATTGTTAGGG | 0.985 ± 0.019
ATTGTTATTT | 1.02 ± 0.018
ATTGTTGTAG | 0.985 ± 0.00069
ATTGTTTATT | 0.998 ± 0.012
ATTGTTTGAG | 0.982 ± 0.0032
ATTGTTTGTT | 1.01 ± 0.016
ATTGTTTTGG | 0.981 ± 0.028
ATTGTTTTTC | 1.04 ± 0.073
ATTTAAAGAT | 0.987 ± 0.049
ATTTAAAGGT | 0.964 ± 0.018
ATTTAAGAGA | 1.01 ± 0.051
ATTTAAGAGG | 1 ± 0.041
ATTTAAGCTC | 0.987 ± 0.024
ATTTAAGTGT | 1 ± 0.021
ATTTAATTAA | 1.02 ± 0.056
ATTTAATTGT | 0.986 ± 0.053
ATTTACATAT | 1.03 ± 0.015
ATTTACGGGG | 1.04 ± 0.0031
ATTTACTCGT | 1.014 ± 0.0017
ATTTAGAATG | 1.02 ± 0.011
ATTTAGGTTA | 0.989 ± 0.021
ATTTAGTTCG | 0.9606 ± 0.0073
ATTTATAATT | 0.992 ± 0.028
ATTTATAGGG | 0.982 ± 0.014

Sequence | switch fluorescence ratio
ATTTATCGGG | 1 ± 0.027
ATTTATGGAT | 1 ± 0.023
ATTTATGGGG | 1 ± 0.032
ATTTATTTTT | 1.011 ± 0.002
ATTTCAAGTT | 0.966 ± 0.011
ATTTCCGTTT | 0.984 ± 0.013
ATTTCGGTGG | 1.06 ± 0.044
ATTTCGTCGA | 0.991 ± 0.019
ATTTCTAGAA | 1.02 ± 0.015
ATTTCTAGGG | 1.027 ± 0.0041
ATTTCTCGGT | 1.07 ± 0.066
ATTTCTTGGT | 0.9751 ± 0.0083
ATTTGAATTG | 1.02 ± 0.03
ATTTGAGATT | 1 ± 0.018
ATTTGAGCTA | 1.04 ± 0.023
ATTTGAGGGA | 1.13 ± 0.2
ATTTGATCGA | 1.02 ± 0.075
ATTTGATTCG | 1.008 ± 0.0087
ATTTGCAGGA | 0.992 ± 0.046
ATTTGCAGTG | 0.994 ± 0.021
ATTTGCTGTG | 0.9916 ± 0.0062
ATTTGGACGA | 1 ± 0.03
ATTTGGCATC | 1.41 ± 0.47
ATTTGGCGCG | 0.964 ± 0.024
ATTTGGCGTG | 1.01 ± 0.099

Sequence | switch fluorescence ratio
ATTTGGGCAT | 0.994 ± 0.029
ATTTGGGGAC | 0.98 ± 0.016
ATTTGGGGAT | 1.02 ± 0.03
ATTTGGGTAG | 1.01 ± 0.062
ATTTGGTGAC | 0.9987 ± 0.0042
ATTTGGTGCA | 1.01 ± 0.056
ATTTGGTTA | 0.993 ± 0.035
ATTTGTAAGT | 0.9587 ± 0.006
ATTTGTTGCA | 1.0298 ± 0.00091
ATTTGTTGCG | 0.999 ± 0.017
ATTTTAAGCG | 1.01 ± 0.014
ATTTTAAGTC | 0.987 ± 0.041
ATTTTACGAT | 0.999 ± 0.049
ATTTTAGTGT | 0.968 ± 0.029
ATTTTATAAA | 0.986 ± 0.026
ATTTTATTTG | 1.06 ± 0.056
ATTTTCATTG | 0.9749 ± 0.0087
ATTTTCCAGG | 1.49 ± 0.26
ATTTTCTTTG | 0.9958 ± 0.0089
ATTTTGCAAT | 1.27 ± 0.037
ATTTTGCGAT | 1.01 ± 0.015
ATTTTGCGTG | 0.98 ± 0.029
ATTTTGCTAA | 0.996 ± 0.016
ATTTTGCTCT | 1.02 ± 0.026
ATTTTGGCGA | 1.02 ± 0.029

Sequence | switch fluorescence ratio
ATTTTGGTTG | 1.01 ± 0.035
ATTTTGTCGC | 0.992 ± 0.016
ATTTTGTGTT | 0.988 ± 0.022
ATTTTTAAGA | 1 ± 0.012
ATTTTTATCC | 1.022 ± 0.0068
ATTTTTGAGC | 1.04 ± 0.048
ATTTTTGAGT | 1.02 ± 0.025
ATTTTTGTGG | 0.974 ± 0.011
ATTTTTGTTA | 0.986 ± 0.054
ATTTTTTCAG | 1.03 ± 0.014
ATTTTTTCCT | 1.03 ± 0.022
ATTTTTTCGC | 0.995 ± 0.015
ATTTTTTGAA | 0.997 ± 0.019
ATTTTTTGG | 0.997 ± 0.017
ATTTTTTTAT | 0.995 ± 0.017
CAAAAAACGA | 0.999 ± 0.066
CAAAAATTAT | 1.03 ± 0.044
CAAAACTTGC | 1.18 ± 0.032
CAAAAGGCAG | 0.984 ± 0.048
CAAAAGGGAT | 1.03 ± 0.017
CAAAAGGTTA | 0.996 ± 0.011
CAAAAGTCGG | 1.02 ± 0.012
CAAAAGTCTT | 1.02 ± 0.037
CAAAATTAAA | 0.958 ± 0.044
CAAAATTGGG | 0.956 ± 0.013

Sequence | switch fluorescence ratio
CAAACAGGCA | 1.03 ± 0.041
CAAACAGTCG | 1.01 ± 0.042
CAAACTGTCA | 1.07 ± 0.06
CAAAGATAAT | 1.01 ± 0.039
CAAAGATGG | 0.947 ± 0.013
CAAAGCTGGG | 1.05 ± 0.05
CAAAGGGCAT | 1.02 ± 0.032
CAAAGGGGGT | 1 ± 0.016
CAAAGGTGCA | 1.09 ± 0.032
CAAAGGTTGG | 1 ± 0.038
CAAATAAGTC | 0.998 ± 0.013
CAAATACGGT | 1.25 ± 0.25
CAAATACTTG | 1.04 ± 0.019
CAAATAGGCC | 1.002 ± 0.0014
CAAATAGGGG | 0.971 ± 0.024
CAAATATGAG | 0.972 ± 0.033
CAAATGATGT | 1.01 ± 0.027
CAAATGCCCG | 0.934 ± 0.055
CAAATGGGCT | 0.975 ± 0.044
CAAATGGGG | 0.9589 ± 0.006
CAAATGGGGG | 0.985 ± 0.015
CAAATGGTTC | 0.9582 ± 0.0043
CAAATTAGGC | 1.06 ± 0.1
CAAATTGGAC | 1.03 ± 0.0071
CAAATTTTTT | 1.01 ± 0.02

Sequence | switch fluorescence ratio
CAACAAGGGA | 1.04 ± 0.018
CAACATGGGG | 0.9925 ± 0.0065
CAACCCATCT | 0.992 ± 0.042
CAACCGTGAG | 1.02 ± 0.017
CAACGGGGGA | 1 ± 0.032
CAACGGGTGC | 1.75 ± 0.21
CAACTATTTT | 1.002 ± 0.0083
CAACTTAGTC | 0.988 ± 0.068
CAAGAAGTGG | 0.993 ± 0.041
CAAGAGGGAG | 0.994 ± 0.018
CAAGCCATCA | 0.9994 ± 0.0092
CAAGCCGTGT | 1.02 ± 0.036
CAAGCGTTGT | 1.03 ± 0.036
CAAGCTTTTT | 0.979 ± 0.032
CAAGGAACGT | 1.01 ± 0.029
CAAGGATGTG | 0.965 ± 0.041
CAAGGCCTGT | 0.971 ± 0.017
CAAGGCTGCA | 1.04 ± 0.06
CAAGGGAATG | 1 ± 0.022
CAAGGGCGGG | 0.997 ± 0.063
CAAGGGGGGT | 1 ± 0.019
CAAGGGTAGG | 1.04 ± 0.021
CAAGGTCAGA | 1.018 ± 0.01
CAAGGTCCAG | 1 ± 0.041
CAAGGTTGTT | 1 ± 0.011
